Experimental data reported in patent publication US20250019450A1 (DIAGONAL THERAPEUTICS, published 2025).
Blank lines part the entries; values can stand above or below the binder they belong to.

Experiments:
[1] = target: T1, human IL-12Rβ2, Acro (BLI analyte) (human, UniProt Q99665 24-622, limits assumed); assay: BLI (Octet), antibody on AHC tip
T1 sequence (looked up): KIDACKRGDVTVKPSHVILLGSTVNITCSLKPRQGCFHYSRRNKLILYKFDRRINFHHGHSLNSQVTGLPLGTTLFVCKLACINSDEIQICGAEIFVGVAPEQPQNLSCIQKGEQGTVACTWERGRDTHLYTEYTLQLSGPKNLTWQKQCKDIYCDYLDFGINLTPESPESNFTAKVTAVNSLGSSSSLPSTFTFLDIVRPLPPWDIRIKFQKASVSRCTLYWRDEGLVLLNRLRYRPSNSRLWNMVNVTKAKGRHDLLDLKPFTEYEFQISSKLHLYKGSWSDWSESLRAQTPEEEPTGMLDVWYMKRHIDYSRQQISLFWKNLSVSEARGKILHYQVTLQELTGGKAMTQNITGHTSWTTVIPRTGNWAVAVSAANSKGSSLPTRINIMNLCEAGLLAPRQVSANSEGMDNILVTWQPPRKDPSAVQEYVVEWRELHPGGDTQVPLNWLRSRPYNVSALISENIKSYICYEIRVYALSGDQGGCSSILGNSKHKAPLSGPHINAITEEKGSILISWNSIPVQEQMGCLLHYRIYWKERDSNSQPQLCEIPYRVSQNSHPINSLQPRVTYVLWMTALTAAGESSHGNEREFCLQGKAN

[2] = target: human IL-12Rβ1, Acro (BLI analyte) (human, UniProt P42701 24-545); assay: BLI (Octet), antibody on AHC tip
[3] = target: human IL-12 receptor (IL-12Rβ1 and IL-12Rβ2) on HEK-Blue IL-12 cells (human, UniProt P42701 24-662; Q99665 24-862); assay: cell-based or functional assay
Sequence of human IL-12 receptor (IL-12Rβ1 and IL-12Rβ2) on HEK-Blue IL-12 cells (Q99665 24-862, chain 2 of 2, other chains not shown): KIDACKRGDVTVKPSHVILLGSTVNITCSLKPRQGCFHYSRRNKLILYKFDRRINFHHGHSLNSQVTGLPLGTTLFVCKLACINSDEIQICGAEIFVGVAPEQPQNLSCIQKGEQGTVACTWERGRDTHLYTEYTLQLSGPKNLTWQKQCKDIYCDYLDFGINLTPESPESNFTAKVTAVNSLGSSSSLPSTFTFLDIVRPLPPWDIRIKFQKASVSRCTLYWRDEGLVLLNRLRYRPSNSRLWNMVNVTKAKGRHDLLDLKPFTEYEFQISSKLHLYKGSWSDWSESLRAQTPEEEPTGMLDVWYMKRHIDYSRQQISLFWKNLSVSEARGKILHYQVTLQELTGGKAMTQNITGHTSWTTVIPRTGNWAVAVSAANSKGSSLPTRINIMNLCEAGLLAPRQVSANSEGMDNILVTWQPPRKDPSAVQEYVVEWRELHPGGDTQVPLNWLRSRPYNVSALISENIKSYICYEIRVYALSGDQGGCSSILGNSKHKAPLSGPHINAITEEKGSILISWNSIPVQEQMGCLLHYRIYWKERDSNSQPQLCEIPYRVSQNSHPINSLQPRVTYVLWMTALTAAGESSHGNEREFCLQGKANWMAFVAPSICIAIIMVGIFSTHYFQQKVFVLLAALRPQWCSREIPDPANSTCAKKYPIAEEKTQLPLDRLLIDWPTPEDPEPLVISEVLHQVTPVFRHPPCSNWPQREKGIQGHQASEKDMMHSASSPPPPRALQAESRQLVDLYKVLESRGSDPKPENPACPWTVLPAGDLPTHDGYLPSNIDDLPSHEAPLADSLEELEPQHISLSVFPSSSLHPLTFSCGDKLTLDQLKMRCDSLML

B2: DGL607 (bispecific antibody, V domains shown)
V domain 1: QVQLVESGGGLMQAGGSLRLSCALSRGIFSAYAMGWFRQVQGKEREFVSGISRSGSTTDYVDTAKGRFTISRDNARDTVYLQMNSLKPEDTAVYYCAAVTGTFPSSTYHNANAYHHWGQGTQVTVEP
V domain 2: QVQLVESGGGLVQAGGSLKLSCAASGGTFSSYAMGWFRQAPGKEREFVAVIMRSGDTTAYVDSVKGRFTVSRDNAKNTVYLQMNSLKPEDAAVYFCAAGRPVTRTYYHTYTYPHDYDYWGQGTQVTVEP
notes: 86B1 x 278B2
Kd [1]: 11.8 nM
Kd [2]: 27.4 nM
EC50 [3]: 7e-09 M (implied)
Max Absorbance [3]: 0.61

B3: DGL534 (bispecific antibody, V domains shown)
V domain 1: QVQLVESGGGLVQAGGSLRLSCLASGRTSNYFMGWFRQAPGKEREFVAAISRSGGGTWYADSVKGRFAISRDNAKNTVNLQMNSLKREDTAVYYCAADRRTGTSVYTVDEYDYWGQGTQVTVEP
V domain 2: QVQLVESGGGLVQPGGSLRLSCAASGFTFSNYAMSWVRQAPGKGLEWVSAINSDGTSTSYADSVKGQFTISRDNAKNTLYLQMNSLKPEDTAVYYCTKWEGDTDSDYKFKDYWGQGTQVTVEP
notes: 115B1 x 19B2
Kd [1]: 0.706 nM
Kd [2]: 59.5 nM
EC50 [3]: 4.5e-10 M (implied)
Max Absorbance [3]: 0.69

B4: DGL482 (bispecific antibody, V domains shown)
V domain 1: QVQLVESGGGLVQAGGSLRLSCAASARIFNSYAVAWFRQTPGKEREFVASISWSGGSTNYADSVKGRFTISRDNAKNTVFLQMNSLKPADTAVYYCAADRNYYPSVLGKYTYWGQGTQVTVEP
V domain 2: QVQLVESGGGLVQPGGSLRLSCAASGFTFSSKAMHWFRQAPGKGLEWVSSINSGGAITYYKDSVKGRFTVSRDNAKNILYLEMNSLKPEDTALYYCATDTDGRTRGQGTQVTVEP
notes: 67B1 x 64B2
Kd [1]: 7.4 nM
Kd [2]: 6.83 nM
EC50 [3]: 2.9e-09 M (implied)
Max Absorbance [3]: 0.68

B6: DGL605 (bispecific antibody, V domains shown)
V domain 1: QLQLVESGGGLVQPGGSLRLSCAASGFTFSSYGMSWVRQAPGKGLEWVSYISAGGGTTTYVDFVKGRFTISRDNAKNMLYLQMNSLKPEDTAVYYCVHAADGSRGQGTQVTVEP
V domain 2: QVQLVESGGGLVQPGGSLRLSCAASGFTFEPYDMSWFRQAPGKGPEWVSAIDKGGGAGATYYADSVKGRFTISRDNAKKTLYLQMKSLKPEDTAVYYCAITAGPYSDSTPRVAYRGEGTQVTVEP
notes: 238B1 x 93B2
Kd [1]: 1.87 nM
Kd [2]: 2.25 nM
EC50 [3]: 4.6e-10 M (implied)
Max Absorbance [3]: 0.74

Second part, the binder after the results:

Kd [1]: < 0.001 nM
Kd [2]: 20.8 nM
EC50 [3]: > 100 nM
Max Absorbance [3]: 0.64
B1: DGL515 (bispecific antibody, V domains shown)
V domain 1: QVQLVESGGGLAQAGGSLRLSCAASGRTFSNDDMAWFRQAPGKEREFVAHIDRNAASTNYADSVKGRFTISRDNAKNTVYLQMTRLKPEDTAVYYCAADPDHFGTTWYQQYTYWGPGTQVTVEP
V domain 2: QVQLVESGGGLVQAGGSLRVSCAASGRIPSLNTMAWYRQAPGKQREFVAFITNGGTTNYVDSVEGRFSISRDNTKNAVDLQMNSLKPEDTGVYYCNVQISQYPYNYWGQGTQVTVEP
notes: 97B1 x 85B2

Kd [1]: 16.1 nM
Kd [2]: 5.49 nM
EC50 [3]: 3.1e-09 M (implied)
Max Absorbance [3]: 0.64
B5: DGL487 (bispecific antibody, V domains shown)
V domain 1: B4 V domain 1
V domain 2: QVQLQESGPGLVKPSQTLSLTCTVSGGSITTNYYYWSWIRQPPGKGLEWMGAIAYSGSTYYSPSLKSRTSISRDTSKNQFTLQLSSVTPEDTAVYYCASGINFYSNYPTLNEYDYWGQGTQVTVEP
notes: 67B1 x 190B2
